Two molecules from patent US20140223606, “COMPOSITIONS AND METHODS COMPRISING SEQUENCES HAVING MEGANUCLEASE ACTIVITY” (PIONEER HI BRED INTERNATIONAL INC, published 2014) can be followed below.

Positions count from the first letter of the chain named.

What all share (settings): tags: NLS, 6xHis
The target of one series is T1, ZM6.3(G5) (artificial).
T1 chain: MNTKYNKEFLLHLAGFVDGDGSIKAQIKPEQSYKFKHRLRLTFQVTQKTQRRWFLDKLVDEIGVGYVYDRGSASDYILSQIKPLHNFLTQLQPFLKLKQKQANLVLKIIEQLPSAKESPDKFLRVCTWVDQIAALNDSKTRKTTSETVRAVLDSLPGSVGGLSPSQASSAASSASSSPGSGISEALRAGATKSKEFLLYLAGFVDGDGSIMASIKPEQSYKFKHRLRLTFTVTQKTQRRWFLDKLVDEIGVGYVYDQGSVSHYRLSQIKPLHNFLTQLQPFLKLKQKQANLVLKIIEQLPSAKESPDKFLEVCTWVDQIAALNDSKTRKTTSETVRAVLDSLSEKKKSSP
Kind of series: cell_activity; yeast 37 C; 28 C: 0. The method, then:
(§1) A 3 mL culture of selective media (MP Biomedical) was inoculated with a single colony of the yeast screening strain and grown at 30° C. overnight. On the following day, a 50 ml YPD culture (MP Biomedical) was started with 2 ml of the overnight culture and grown at 30° C. overnight. On the following day, the cells were harvested by centrifugation at 4000 rpm. The cells were resuspended in 100 ml ice cold water and centrifuged again. The cells were then washed in 1.2 M sorbitol, followed by treatment with 2 ml of 10 mM Tris pH 8.0, 1 mM EDTA, 100 mM Lithium acetate, 10 mM DTT, 0.6M sorbitol for 30 minutes at 30° C. with shaking. The cells were recovered by centrifugation, washed in 40 ml 1.2M sorbitol and finally resuspended in 250 microliters of 1.2M sorbitol. 50 microliter aliquots were transferred to test tubes on ice. Up to 5 microliters of DNA (100-500 nanograms) were added. The suspension was transferred to a 0.2 cm electroporation cuvette, on ice. Electroporation was performed with a pulse charge at 1.5 kV, 200 ohms, 25 microF (pulse time of 5 milliseconds). 1 mL YPD media (MP Biomedical) was added and the cells were allowed to recover at 30° C. for 1-2 hr. The cells were centrifuged, resuspended in 100 uL 1M sorbitol and plated on selective media lacking leucine and containing 2% galactose. The resulting yeast colonies were incubated at various temperatures ranging from 22 to 37 degrees Celsius for 7-10 days. I-CreI and meganucleases derived from it have maximal activity at or above 37 degrees Celsius. Screening was performed at a range of temperatures from 22 to 37 degrees in order to observe increases in activity at lower temperatures which are relevant to certain biological systems (eg. plant cells, plant cell cultures, etc). At that time the red/white sectoring phenotype, indicative of meganuclease activity was observed. Colonies with increased white sectoring over the parental meganuclease (indicating colonies expressing a meganuclease with increased meganuclease activity), also referred to as “hits” and sometimes completely white, were isolated for further analysis. […]

The target of the next series is T2, ZM6.3 (artificial).
T2 chain: T1 chain with H12Y, A73V, R124E
In words: cell_activity; yeast 37 C; 28 C: 0. On the procedure:
as §1

The target of the next series is T3, ZM6.3(3) (artificial).
T3 chain: T1 chain with H12Y, A73V, E117G, R124E
Kind of series: cell_activity; yeast 37 C; 28 C: 0. On the procedure:
as §1

A further series deals with T4, ZM6.22v2(I8) (artificial).
T4 chain: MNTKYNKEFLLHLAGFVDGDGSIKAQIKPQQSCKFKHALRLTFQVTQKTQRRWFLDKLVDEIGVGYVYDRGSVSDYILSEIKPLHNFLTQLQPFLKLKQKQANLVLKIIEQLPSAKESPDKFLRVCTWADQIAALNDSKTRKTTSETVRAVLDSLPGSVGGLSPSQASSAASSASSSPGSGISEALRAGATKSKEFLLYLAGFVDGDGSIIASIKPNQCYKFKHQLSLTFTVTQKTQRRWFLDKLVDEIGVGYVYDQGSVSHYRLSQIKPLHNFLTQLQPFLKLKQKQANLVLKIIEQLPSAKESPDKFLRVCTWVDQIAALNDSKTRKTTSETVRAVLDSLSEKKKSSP
In words: cell_activity; yeast 37 C; 30 C: 0.5. On the procedure:
(§2) A 3 mL culture of selective media (MP Biomedical) was inoculated with a single colony of the yeast screening strain and grown at 30° C. overnight. On the following day, a 50 ml YPD culture (MP Biomedical) was started with 2 ml of the overnight culture and grown at 30° C. overnight. On the following day, the cells were harvested by centrifugation at 4000 rpm. The cells were resuspended in 100 ml ice cold water and centrifuged again. The cells were then washed in 1.2 M sorbitol, followed by treatment with 2 ml of 10 mM Tris pH 8.0, 1 mM EDTA, 100 mM Lithium acetate, 10 mM DTT, 0.6M sorbitol for 30 minutes at 30° C. with shaking. The cells were recovered by centrifugation, washed in 40 ml 1.2M sorbitol and finally resuspended in 250 microliters of 1.2M sorbitol. 50 microliter aliquots were transferred to test tubes on ice. Up to 5 microliters of DNA (100-500 nanograms) were added. The suspension was transferred to a 0.2 cm electroporation cuvette, on ice. Electroporation was performed with a pulse charge at 1.5 kV, 200 ohms, 25 microF (pulse time of 5 milliseconds). 1 mL YPD media (MP Biomedical) was added and the cells were allowed to recover at 30° C. for 1-2 hr. The cells were centrifuged, resuspended in 100 uL 1M sorbitol and plated on selective media lacking leucine and containing 2% galactose. The resulting yeast colonies were incubated at various temperatures ranging from 22 to 37 degrees Celsius for 7-10 days. I-CreI and meganucleases derived from it have maximal activity at or above 37 degrees Celsius. Screening was performed at a range of temperatures from 22 to 37 degrees in order to observe increases in activity at lower temperatures which are relevant to certain biological systems (eg. plant cells, plant cell cultures, etc). At that time the red/white sectoring phenotype, indicative of meganuclease activity was observed. Colonies with increased white sectoring over the parental meganuclease (indicating colonies expressing a meganuclease with increased meganuclease activity), also referred to as “hits” and sometimes completely white, were isolated for further analysis.
(§3) A total of 13 ZM6.22v2 variants with increased activity were confirmed in the yeast system (as described in Example 6). Increased activity was observed across a range of temperatures: 28 degrees Celsius, 30 degrees Celsius and 37 degrees Celsius, as shown in Table 16.

For the next series, the target named is T5, ZM6.22v2(J7) (artificial).
T5 chain: T4 chain with D56L, V105A, Q131R, R311E
Kind of series: cell_activity; yeast 37 C; 30 C: 0.5. The method, then:
as §2, §3

B1: ZM6.3 recognition site (dsDNA)
DNA 1: CAGGCTCTCGTAAATGCGCCTG
DNA 2: CAGGCGCATTTACGAGAGCCTG
Consider B1, for which the activity with ZM6.3(G5), in the series with ZM6.3 and with ZM6.3(3) was 2 score 0-4 throughout.

B2: ZM6.22v2 recognition site (dsDNA)
DNA 1: ATTGCTCTCTCACATACTTTTA
DNA 2: TAAAAGTATGTGAGAGAGCAAT
B2: the activity came out at 2.5 score 0-4 in the series with ZM6.22v2(I8) and 3 score 0-4 in the series with ZM6.22v2(J7).
